Assay results: article PMC7453904, “Intrahepatic heteropolymerization of M and Z alpha-1-antitrypsin” (JCI Insight, 2020)

Legend:
[1] = biological target: Z A1AT subunit of MZ heterozygote liver polymers (human (endogenous in liver tissue)); assay: negative-stain electron microscopy of liver polymers; polymers formed in vivo, extracted from inclusion bodies of explant liver and purified; imaged with and without Fab2H2, which marks M subunits; subunits counted
[2] = biological target: T1, plasma-purified monomeric native M alpha-1-antitrypsin (Homo sapiens (Human)., UniProt P01009); assay: SPR; Biacore T100; mAb2H2 amine-coupled to a CM5 chip; A1AT analytes 0–2 μM in PBS with 0.05% v/v Tween-20 at 30 μL/min; maximal responses fit by a hyperbolic function; settings: both partners purified
T1 construct: Plasma glycoprotein; also called M A1AT; native M A1AT
T1 sequence (P01009 25-418): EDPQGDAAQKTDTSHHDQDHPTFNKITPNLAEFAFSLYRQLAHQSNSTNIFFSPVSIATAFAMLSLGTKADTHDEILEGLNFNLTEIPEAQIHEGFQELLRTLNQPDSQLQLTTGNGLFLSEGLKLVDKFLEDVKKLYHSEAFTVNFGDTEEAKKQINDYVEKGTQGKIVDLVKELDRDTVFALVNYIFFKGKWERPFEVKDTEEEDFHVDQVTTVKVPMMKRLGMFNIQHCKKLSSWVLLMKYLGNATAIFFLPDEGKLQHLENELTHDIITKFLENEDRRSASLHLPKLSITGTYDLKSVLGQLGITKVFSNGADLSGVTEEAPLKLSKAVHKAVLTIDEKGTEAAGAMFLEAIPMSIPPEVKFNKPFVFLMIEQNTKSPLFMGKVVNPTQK

Row | Molecule | mean length in subunits of circular polymers without a detectable M component [1] [subunits] | mean length in subunits of linear polymers without a detectable M component [1] [subunits] | Kd [2] [nM]
1 | Z A1AT subunit of MZ heterozygote liver polymers (natural protein) | 6.6 | 6.5 | –
2 | monoclonal antibody mAb2H2 (antibody, V domains shown, Whole mouse monoclonal antibody; Raised against heat-induced and denaturant-induced polymers of plasma A1AT; also called clone 2H2; source: hybridoma from splenocytes of immunized BALB/c mice; in culture medium (screen) and purified (HiTrap Protein G)) VH: EVQLEESGGGLVKPGGSLKLSCAASGFAFSIYDMSWVRQTPEKRLEWVAYISSGGGTTYYPDTVKGRFTISRDNAKNTLYLQMSSLKSEDTAIYYCARHAGVHYWGQGTTLTVSS VL: DIVMTQSPSSMYASLGERVTITCKASQDINSYLSWFQQKPGKSPKNLIYRANRLVDGVPSRFSGSGSGQDYSLTISSLEYEDMGIYYCLQYDEFPWTFGGGTKLESK | – | – | 447
